Patent publication US20200270325A1 (Merck Sharp & Dohme, published 2020)
Numbered stars: 1 amine (or outer) side, 2 acyl side, 3 side chain; on linkers, the order of the positions; unused ones are H or OH. Square brackets hold non-standard residues; d marks the D form. Side chains are listed from the residue outwards. Ends that are not written are not given here. * marks the point of attachment. C18 diacid = O=C(O)CCCCCCCCCCCCCCCCC(=O)*; C16 diacid = O=C(O)CCCCCCCCCCCCCCC(=O)*; γGlu = O=C(O)[C@H](CCC(=O)[*:2])N[*:1]; Met(O2) = CS(=O)(=O)CC[C@H](N)C(=O)O; αMeD = C[C@](N)(CC(=O)O)C(=O)O; AEEA = NCCOCCOCC(=O)O; Aib = CC(C)(N)C(=O)O

Legend:
[1] = target: human Glucagon receptor (GCGR) (human, UniProt P47871 26-477); test: cell-based or functional assay
[2] = target: human GLP-1 receptor (GLP1R) (human, UniProt P43220 24-463); test: cell-based or functional assay

Sequence of human Glucagon receptor (GCGR) (P47871 26-477): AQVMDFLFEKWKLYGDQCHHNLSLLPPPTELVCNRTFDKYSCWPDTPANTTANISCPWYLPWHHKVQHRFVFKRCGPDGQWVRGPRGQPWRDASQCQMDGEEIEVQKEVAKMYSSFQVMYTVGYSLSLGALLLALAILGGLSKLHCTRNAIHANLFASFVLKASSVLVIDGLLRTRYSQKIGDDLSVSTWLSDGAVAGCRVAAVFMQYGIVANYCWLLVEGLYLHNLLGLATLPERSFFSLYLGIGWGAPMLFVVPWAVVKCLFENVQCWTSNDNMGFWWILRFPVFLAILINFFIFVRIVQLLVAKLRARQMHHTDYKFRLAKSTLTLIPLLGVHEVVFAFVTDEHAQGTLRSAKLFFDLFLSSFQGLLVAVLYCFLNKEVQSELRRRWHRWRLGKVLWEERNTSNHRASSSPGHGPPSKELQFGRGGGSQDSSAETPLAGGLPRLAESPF

B1: TP828 (peptide)
peptide: H[Aib]QGTFTSDYSKYLD[Aib]RAAQDFVK([AEEA-AEEA-γGlu-C16 diacid])WL[Met(O2)][γGlu]T-NH2
modifications: N-terminus assumed
SMILES: CC(C)C[C@H](NC(=O)[C@H](Cc1c[nH]c2ccccc12)NC(=O)[C@H](CCCCNC(=O)COCCOCCNC(=O)COCCOCCNC(=O)CC[C@H](NC(=O)CCCCCCCCCCCCCCC(=O)O)C(=O)O)NC(=O)[C@@H](NC(=O)[C@H](Cc1ccccc1)NC(=O)[C@H](CC(=O)O)NC(=O)[C@H](CCC(N)=O)NC(=O)[C@H](C)NC(=O)[C@H](C)NC(=O)[C@H](CCCNC(=N)N)NC(=O)C(C)(C)NC(=O)[C@H](CC(=O)O)NC(=O)[C@H](CC(C)C)NC(=O)[C@H](Cc1ccc(O)cc1)NC(=O)[C@H](CCCCN)NC(=O)[C@H](CO)NC(=O)[C@H](Cc1ccc(O)cc1)NC(=O)[C@H](CC(=O)O)NC(=O)[C@H](CO)NC(=O)[C@@H](NC(=O)[C@H](Cc1ccccc1)NC(=O)[C@@H](NC(=O)CNC(=O)[C@H](CCC(N)=O)NC(=O)C(C)(C)NC(=O)[C@@H](N)Cc1c[nH]cn1)[C@@H](C)O)[C@@H](C)O)C(C)C)C(=O)N[C@@H](CCS(C)(=O)=O)C(=O)N[C@@H](CCC(=O)N[C@H](C(N)=O)[C@@H](C)O)C(=O)O
- GCGR EC50 human [1]: 0.228 nM
- GLP1R EC50 human [2]: 0.587 nM

B2: TP575 (peptide)
peptide: H[Aib]QGTFTSDYSKYLD[Aib]RAAQDFVK([AEEA-AEEA-γGlu-C18 diacid])WL[Met(O2)]DT-NH2
modifications: N-terminus assumed
SMILES: CC(C)C[C@H](NC(=O)[C@H](Cc1c[nH]c2ccccc12)NC(=O)[C@H](CCCCNC(=O)COCCOCCNC(=O)COCCOCCNC(=O)CC[C@H](NC(=O)CCCCCCCCCCCCCCCCC(=O)O)C(=O)O)NC(=O)[C@@H](NC(=O)[C@H](Cc1ccccc1)NC(=O)[C@H](CC(=O)O)NC(=O)[C@H](CCC(N)=O)NC(=O)[C@H](C)NC(=O)[C@H](C)NC(=O)[C@H](CCCNC(=N)N)NC(=O)C(C)(C)NC(=O)[C@H](CC(=O)O)NC(=O)[C@H](CC(C)C)NC(=O)[C@H](Cc1ccc(O)cc1)NC(=O)[C@H](CCCCN)NC(=O)[C@H](CO)NC(=O)[C@H](Cc1ccc(O)cc1)NC(=O)[C@H](CC(=O)O)NC(=O)[C@H](CO)NC(=O)[C@@H](NC(=O)[C@H](Cc1ccccc1)NC(=O)[C@@H](NC(=O)CNC(=O)[C@H](CCC(N)=O)NC(=O)C(C)(C)NC(=O)[C@@H](N)Cc1c[nH]cn1)[C@@H](C)O)[C@@H](C)O)C(C)C)C(=O)N[C@@H](CCS(C)(=O)=O)C(=O)N[C@@H](CC(=O)O)C(=O)N[C@H](C(N)=O)[C@@H](C)O
- GCGR EC50 human [1]: 0.595 nM
- GLP1R EC50 human [2]: 0.866 nM

Binder: H[Aib]QGTFTSDYSKYLD[Aib]RAAK([AEEA-AEEA-γGlu-C20‑OH])DFVQWL[Met(O2)]DT-NH2 [TP564]
- GCGR EC50 human [1]: 1.25 nM
- GLP1R EC50 human [2]: 1.22 nM

Binder: H[Aib]QGTFTSDYSKYLDERAAK([AEEA-AEEA-γGlu-C20‑OH])DFVQWL[Met(O2)][αMeD]T-NH2 [TP589]
- GCGR EC50 human [1]: 19.8 nM
- GLP1R EC50 human [2]: 2.07 nM
